Experimental data: paper PMC5508132
Non-standard residues stand in square brackets, D forms with d. Groups on a side chain read outwards from the residue. No end group written: not given here. Phe(4-N3) = [N-]=[N+]=Nc1ccc(C[C@H](N)C(=O)O)cc1; ssDNA = not defined here

Target: integrin (of mouse fibroblasts, members not named for this experiment)
Conditions: scale: fold relative to the unmodified substrate

area of fibroblasts on RGDS surfaces after 24 h, relative to the unmodified substrate: 6
Binder: [Phe(4-N3)]([DIBAC-ssDNA])GGRGDS-NH2 (reading uncertain; also: printed as F^az^GGRGDS) [RGDS P-DNA (F^azGGRGDS peptide conjugated to ssDNA)]
